Results taken from paper PMC3574120.

Molecular target: FrpB F3-3 variant (Neisseria meningitidis)
Assay: crystal structure; FrpB F3-3, space group P212121, three copies in the asymmetric unit about a non-crystallographic 3-fold axis, 2.40 Å; C8E5 detergent; crystals from the monomeric SEC peak

FrpB F3-3 variant (natural protein)
stoichiometry N: 3
